{"source": "paper PMC4304843", "about": "“Human Mitochondrial Hsp70 (Mortalin): Shedding Light on ATPase Activity, Interaction with Adenosine Nucleotides, Solution Structure and Domain Organization” (PLoS ONE, 2015)", "key": {"[1]": {"target": "Human mitochondrial Hsp70 (mortalin), recombinant (human) (UniProt P38646)", "assay": "SEC; analytical SEC (Superdex 200 GL 10/30, TKP buffer pH 7.5) of mortalin directly after Ni2+ affinity chromatography"}, "[2]": {"tested_on": "T1, Nc1ncnc2c1ncn2[C@@H]1O[C@H](COP(=O)(O)OP(=O)(O)OP(=O)(O)O)[C@@H](O)[C@H]1O", "T1 construct": "monomeric SEC fraction, alkaline phosphatase treated", "assay": "ATPase, EnzChek phosphate assay, Michaelis-Menten fit", "format": "biochemical, Homo sapiens", "details": "TKP buffer without phosphate pH 7.5, 2 mM Mg2+, 37°C, no co-chaperone", "description": "ATPase, EnzChek phosphate assay, Michaelis-Menten fit on human mortalin (mtHsp70, GRP75, HspA9, PBP74)"}}}
{"substance": "Human mitochondrial Hsp70 (mortalin), recombinant (from UniProt P38646 47-679) (natural protein)", "values": [{"measurement": "stoichiometry N", "setting": "[1]", "result": 2}]}
{"substance": "human mortalin (mtHsp70, GRP75, HspA9, PBP74) (Homo sapiens)", "values": [{"measurement": "Km", "setting": "[2]", "result": "190 ± 20", "unit": "µM"}, {"measurement": "kcat", "setting": "[2]", "result": "0.00252 ± 3.33e-05", "unit": "s⁻¹"}]}
